In US20190033295A1 (MEDICINAL BIOCONVERGENCE RESEARCH CENTER, published 2019):
One block for each binder: values may come before it.

Experiments:
HSP70 protein [1] = molecular target: T1, HSP70 protein (human, UniProt P0DMV8 1-641, limits assumed); experiment: IP of H460 cell lysate with Hsp70 antibody, western blot
T1 construct: Untagged HSP70: endogenous in H460 and 293T cells (co-IP, western blot with HSP70 antibody) and the purified protein fixed on the SPR chip; The construct of the purified protein is not described; also called heat shock protein 70; endogenous HSP70
T1 sequence (P0DMV8 whole entry): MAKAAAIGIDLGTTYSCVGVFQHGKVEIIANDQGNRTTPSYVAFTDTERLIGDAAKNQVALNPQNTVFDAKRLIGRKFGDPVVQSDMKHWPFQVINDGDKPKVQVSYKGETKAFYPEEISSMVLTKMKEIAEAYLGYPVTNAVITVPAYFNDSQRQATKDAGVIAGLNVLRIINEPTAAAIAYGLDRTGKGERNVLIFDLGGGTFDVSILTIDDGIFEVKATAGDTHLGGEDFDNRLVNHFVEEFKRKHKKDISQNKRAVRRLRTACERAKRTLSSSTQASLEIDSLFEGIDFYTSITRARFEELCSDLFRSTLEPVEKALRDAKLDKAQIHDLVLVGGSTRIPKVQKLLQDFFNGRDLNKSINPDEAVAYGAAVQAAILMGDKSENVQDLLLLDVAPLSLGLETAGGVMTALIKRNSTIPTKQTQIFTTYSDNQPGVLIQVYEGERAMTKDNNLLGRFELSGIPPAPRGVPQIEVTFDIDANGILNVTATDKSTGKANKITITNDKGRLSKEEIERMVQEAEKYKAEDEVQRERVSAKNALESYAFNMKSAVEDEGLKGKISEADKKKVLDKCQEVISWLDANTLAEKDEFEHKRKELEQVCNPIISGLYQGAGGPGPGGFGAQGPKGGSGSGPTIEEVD
Description: H460 cells were treated with […] (EGF (Peprotech)) for 30 minutes, and then lysed with IP buffer (50 mM Tris (pH7.4), 100 mM NaCl, 10% Glycerol, 1 mM EDTA, 0.5% TritonX-100, PBS) at 4° C. for 30 minutes. […] Actin (Sigma) means loading control, and WCL means whole cell lysate.

HSP90B1 = molecular target: T2, HSP90B1 (UniProt P14625 22-803); experiment: strep-tag column pull-down from 293T lysate, LC-mass spectrometry
T2 construct: Identified by mass spectrometry of tryptic peptides
T2 sequence (P14625 22-803 limits assumed): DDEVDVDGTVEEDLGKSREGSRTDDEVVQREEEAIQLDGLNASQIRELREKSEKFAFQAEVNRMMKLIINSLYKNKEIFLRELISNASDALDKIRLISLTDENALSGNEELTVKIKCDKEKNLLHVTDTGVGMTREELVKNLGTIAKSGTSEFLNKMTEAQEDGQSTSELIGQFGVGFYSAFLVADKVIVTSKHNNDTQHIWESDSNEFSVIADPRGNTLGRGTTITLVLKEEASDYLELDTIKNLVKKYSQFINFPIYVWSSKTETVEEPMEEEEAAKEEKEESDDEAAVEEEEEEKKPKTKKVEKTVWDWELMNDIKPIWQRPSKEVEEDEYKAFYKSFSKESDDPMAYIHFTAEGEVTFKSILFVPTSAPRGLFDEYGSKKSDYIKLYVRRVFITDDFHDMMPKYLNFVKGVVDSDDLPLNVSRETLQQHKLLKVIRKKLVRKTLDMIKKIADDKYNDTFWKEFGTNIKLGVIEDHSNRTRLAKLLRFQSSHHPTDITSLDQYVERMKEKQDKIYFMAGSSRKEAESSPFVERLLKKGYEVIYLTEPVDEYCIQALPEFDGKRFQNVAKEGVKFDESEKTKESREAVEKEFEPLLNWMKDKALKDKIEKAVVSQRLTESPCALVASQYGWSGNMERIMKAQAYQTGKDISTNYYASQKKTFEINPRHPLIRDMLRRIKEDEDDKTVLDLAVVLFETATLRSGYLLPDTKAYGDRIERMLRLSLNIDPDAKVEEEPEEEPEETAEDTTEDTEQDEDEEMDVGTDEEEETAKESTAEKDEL
Description: (§1) Separated proteins were degraded to their peptide levels by in-gel digestion using trypsin (Hyclone), and these peptides were analyzed by LC-mass spectrometry (Thermo) (FIG. 1A).
(§2) Cell lysis was performed by incubating at 4° C. for 30 min with an appropriate amount of lysis buffer (50 mM Tris(pH7.4), 100 mM NaCl, 10% Glycerol, 1 mM EDTA, 0.5% TritonX-100, PBS). And, lysed cell lysate was centrifuged at 13,200 rpm for 15 minutes. After […] the supernatant from the cell lysate, the supernatant was passed through a strep-tag column (thermo). After passing the supernatant, the proteins bound to the column were eluted by using elution buffer, and then the collected proteins were separated by SDS-PAGE.

HSP70 protein [2] = molecular target: T1, HSP70 protein; experiment: strep-tag column IP of 293T lysate overexpressing Strep-AIMP2-DX2, western blot
Description: After the cells were lysed in the same manner as described above, IP was performed using a Strep-tag column (GE Helathcare).

GFP-HSP70 = molecular target: T3, GFP-HSP70 (human, UniProt P0DMV8 1-641); experiment: confocal microscopy of 293T cells overexpressing both
T3 construct: Overexpressed in 293T or H460 cells; order of the parts as in the printed name; also called GFP-HSP70 full; not shown: GFP
T3 sequence (P0DMV8 whole entry): as the sequence (P0DMV8 whole entry) above
Description: After EGF treatment, the cells were washed 3 times with cold PBS, and were fixed with cold methanol for 10 minutes. After fixation, the cells were washed 3 times with cold PBS, and nuclei were stained with DAPI (Invitrogen) solution. After staining, each fluorescence was observed using confocal microscopy.

HSPA9 = molecular target: T4, HSPA9 (UniProt P38646 47-679); experiment: strep-tag column pull-down from 293T lysate, LC-mass spectrometry
T4 construct: Identified by mass spectrometry of tryptic peptides
T4 sequence (P38646 47-679 limits assumed): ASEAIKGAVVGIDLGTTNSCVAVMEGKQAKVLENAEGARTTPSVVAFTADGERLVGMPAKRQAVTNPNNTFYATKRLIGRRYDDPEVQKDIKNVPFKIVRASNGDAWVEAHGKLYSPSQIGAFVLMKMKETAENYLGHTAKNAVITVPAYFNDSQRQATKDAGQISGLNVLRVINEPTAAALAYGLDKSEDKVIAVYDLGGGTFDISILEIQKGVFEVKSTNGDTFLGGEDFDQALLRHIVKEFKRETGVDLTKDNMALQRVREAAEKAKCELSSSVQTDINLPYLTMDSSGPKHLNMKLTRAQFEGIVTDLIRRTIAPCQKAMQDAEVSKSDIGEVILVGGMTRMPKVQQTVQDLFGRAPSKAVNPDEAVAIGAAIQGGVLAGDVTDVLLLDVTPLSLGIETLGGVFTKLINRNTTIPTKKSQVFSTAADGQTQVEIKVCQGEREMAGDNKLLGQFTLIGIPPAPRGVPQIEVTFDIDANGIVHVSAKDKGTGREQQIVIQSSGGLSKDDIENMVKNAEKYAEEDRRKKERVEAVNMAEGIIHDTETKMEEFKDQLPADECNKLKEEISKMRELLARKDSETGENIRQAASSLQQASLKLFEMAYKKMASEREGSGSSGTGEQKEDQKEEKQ
Description: as §1, §2

HSPA5 = molecular target: T5, HSPA5 (UniProt P11021 19-654); experiment: as above
T5 construct: Identified by mass spectrometry of tryptic peptides
T5 sequence (P11021 19-654 limits assumed): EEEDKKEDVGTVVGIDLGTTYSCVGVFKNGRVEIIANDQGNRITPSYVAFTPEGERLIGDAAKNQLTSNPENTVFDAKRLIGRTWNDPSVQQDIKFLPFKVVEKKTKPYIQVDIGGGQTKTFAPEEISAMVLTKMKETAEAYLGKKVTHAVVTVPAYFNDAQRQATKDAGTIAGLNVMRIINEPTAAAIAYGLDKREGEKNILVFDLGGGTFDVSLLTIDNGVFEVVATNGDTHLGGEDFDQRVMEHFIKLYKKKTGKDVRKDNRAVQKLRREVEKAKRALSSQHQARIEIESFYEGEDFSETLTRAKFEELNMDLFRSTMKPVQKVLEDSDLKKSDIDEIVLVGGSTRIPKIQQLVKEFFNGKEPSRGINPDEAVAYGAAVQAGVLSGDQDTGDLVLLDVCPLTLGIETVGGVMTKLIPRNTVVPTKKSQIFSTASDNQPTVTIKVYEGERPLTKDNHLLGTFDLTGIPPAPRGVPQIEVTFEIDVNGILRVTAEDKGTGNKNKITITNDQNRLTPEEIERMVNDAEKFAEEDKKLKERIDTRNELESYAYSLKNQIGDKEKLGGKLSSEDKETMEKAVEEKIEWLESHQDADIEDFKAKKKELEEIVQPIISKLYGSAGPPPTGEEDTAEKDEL
Description: as §1, §2

HSPA2 = molecular target: T6, HSPA2 (UniProt P54652 1-639); experiment: as above
T6 construct: Identified by mass spectrometry of tryptic peptides
T6 sequence (P54652 whole entry): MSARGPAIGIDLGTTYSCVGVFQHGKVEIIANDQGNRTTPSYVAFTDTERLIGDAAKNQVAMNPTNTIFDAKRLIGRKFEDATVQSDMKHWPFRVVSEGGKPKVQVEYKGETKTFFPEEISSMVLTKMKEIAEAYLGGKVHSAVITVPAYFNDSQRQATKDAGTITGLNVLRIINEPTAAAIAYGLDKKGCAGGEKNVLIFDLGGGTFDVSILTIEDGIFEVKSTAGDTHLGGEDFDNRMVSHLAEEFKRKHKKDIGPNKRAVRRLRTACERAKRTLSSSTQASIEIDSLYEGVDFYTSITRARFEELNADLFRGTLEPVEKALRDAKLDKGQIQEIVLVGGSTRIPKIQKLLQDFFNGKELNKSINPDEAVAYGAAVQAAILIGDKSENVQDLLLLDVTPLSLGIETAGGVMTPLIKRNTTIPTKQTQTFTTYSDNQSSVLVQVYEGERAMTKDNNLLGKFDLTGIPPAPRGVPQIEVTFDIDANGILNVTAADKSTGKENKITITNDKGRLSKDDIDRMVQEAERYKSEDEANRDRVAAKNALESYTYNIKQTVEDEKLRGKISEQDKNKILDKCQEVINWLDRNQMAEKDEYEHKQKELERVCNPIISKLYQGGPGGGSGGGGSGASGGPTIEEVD
Description: as §1, §2

HSPA1L = molecular target: T7, HSPA1L (UniProt P34931 1-641); experiment: as above
T7 construct: Identified by mass spectrometry of tryptic peptides
T7 sequence (P34931 whole entry): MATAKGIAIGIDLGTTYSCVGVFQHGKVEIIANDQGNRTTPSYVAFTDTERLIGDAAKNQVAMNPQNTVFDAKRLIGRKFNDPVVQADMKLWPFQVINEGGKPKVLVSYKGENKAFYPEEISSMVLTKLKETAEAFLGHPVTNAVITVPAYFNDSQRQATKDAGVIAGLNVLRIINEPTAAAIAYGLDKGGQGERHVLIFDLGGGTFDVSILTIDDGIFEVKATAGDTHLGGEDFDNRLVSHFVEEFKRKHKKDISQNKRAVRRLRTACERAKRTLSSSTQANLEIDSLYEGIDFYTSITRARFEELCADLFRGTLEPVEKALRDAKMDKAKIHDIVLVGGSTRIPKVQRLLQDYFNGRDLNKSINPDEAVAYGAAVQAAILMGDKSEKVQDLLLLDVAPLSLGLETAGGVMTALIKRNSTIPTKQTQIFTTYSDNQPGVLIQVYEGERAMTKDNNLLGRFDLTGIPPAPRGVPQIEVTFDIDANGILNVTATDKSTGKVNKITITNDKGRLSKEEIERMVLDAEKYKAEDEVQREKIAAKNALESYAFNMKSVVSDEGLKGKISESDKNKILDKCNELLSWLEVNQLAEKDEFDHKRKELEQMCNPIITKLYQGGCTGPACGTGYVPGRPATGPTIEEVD
Description: as §1, §2

binding result (HSP70 protein [1]): binds
B1: AIMP2-DX2 protein (other)
chain: MPMYQVKPYHGGGAPLRVELPTCMYRLPNVHGRSYGPAPGAGHVQDYGALKDIVINANPASPPLSLLVLHRLLCEHFRVLSTVHTHSSVKSVPENLLKCFGEQNKKQPRQDYQLGFTLIWKNVPKTQMKFSIQTMCPIEGEGNIARFLFSLFGQKHNAVNATLIDSWVDIAIFQLKEGSSKEKAAVFRSMNSALGKSPWLAGNELTVADVVLWSVLQQIGGCSVTVPANVQRWMRSCENLAPFNTALKLLK
notes: Untagged AIMP2-DX2: endogenous in H460 cells (IP with Hsp70 antibody) and the purified protein flowed in SPR

binding result (HSP90B1): no binding
binding result (HSP70 protein [2]): binds
B2: Strep-AIMP2-DX2 (other)
chain: B1 chain
notes: Overexpressed in 293T cells; The tag is put first as in the printed name; also called Strep-DX2; exogenous AIMP2-DX2; not shown: Strep tag from the pEXPR-IBA5 vector

binding result (GFP-HSP70): binds
B3: RFP-AIMP2-DX2 (other)
chain: B1 chain
notes: Overexpressed in 293T cells; order of the parts as in the printed name; not shown: RFP

binding result (HSP70 protein [1]): no binding
B4: AIMP2 (other, UniProt Q13155 1-320, looked up)
chain: MPMYQVKPYHGGGAPLRVELPTCMYRLPNVHGRSYGPAPGAGHVQEESNLSLQALESRQDDILKRLYELKAAVDGLSKMIQTPDADLDVTNIIQADEPTTLTTNALDLNSVLGKDYGALKDIVINANPASPPLSLLVLHRLLCEHFRVLSTVHTHSSVKSVPENLLKCFGEQNKKQPRQDYQLGFTLIWKNVPKTQMKFSIQTMCPIEGEGNIARFLFSLFGQKHNAVNATLIDSWVDIAIFQLKEGSSKEKAAVFRSMNSALGKSPWLAGNELTVADVVLWSVLQQIGGCSVTVPANVQRWMRSCENLAPFNTALKLLK
notes: Endogenous protein in H460 cell lysate; also called p38/JTV-1

binding result (HSPA9): no binding
binding result (HSPA5): no binding
binding result (HSPA2): no binding
binding result (HSPA1L): no binding
B5: strep-AIMP2 (other, UniProt Q13155 1-320, looked up)
chain: B4 chain
notes: Overexpressed in 293T cells; not shown: Strep tag from the pEXPR-IBA5 vector
